Here are results for three molecules from PMC12040651, “cAMP-independent Crp homolog adds to the multi-layer regulatory network in Porphyromonas gingivalis”.

Data set [1] has as its target Crp^Pg protein (Porphyromonas gingivalis A7436 Crp homolog, CRP/FNR superfamily) (Porphyromonas gingivalis A7436). The experiment in a line: cross-linking; 10 uM purified Crp^Pg in PBS, 30 min at room temperature, without or with 1 mM cAMP, then 0.2% formaldehyde for 1 h at 37°C; SDS-PAGE with CBB G-250 staining; monomer to dimer.
For data set [2], the target named is T1, CrpPg (Crp homolog) (Porphyromonas gingivalis A7436, UniProt Q7MAW7 1-232).
T1 sequence: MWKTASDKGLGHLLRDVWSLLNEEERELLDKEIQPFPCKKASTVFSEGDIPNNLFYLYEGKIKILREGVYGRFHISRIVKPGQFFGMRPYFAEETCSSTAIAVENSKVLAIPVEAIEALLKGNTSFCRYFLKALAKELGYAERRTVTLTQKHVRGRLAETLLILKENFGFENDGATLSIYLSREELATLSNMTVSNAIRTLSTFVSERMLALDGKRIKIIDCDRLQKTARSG
The experiment in a line: EMSA. To be noted: protein: recombinant, tags: 6xHis-MBP N-terminal, removed with Factor Xa, chain copies: 2, blunt. A general note: Mobility shift assays separate free from complexed probe on a gel.

As usually defined, the stoichiometry N is a count of units in the complex or per binding partner.

In the case of “Crp^Pg protein (Porphyromonas gingivalis A7436 Crp homolog, CRP/FNR superfamily) (natural protein)”, the stoichiometry N in data set [1] was determined as 2.

B1: crpPg promoter fragment 4 (dsDNA)
DNA 1: CTCATAATAATAGTTCTACGGCCTTTCTTCCTCGTTGTACGGATTTGAGCAAATAGACATTCTCTGAACACTTATATGTGGAAGACAG
DNA 2: CTGTCTTCCACATATAAGTGTTCAGAGAATGTCTATTTGCTCAAATCCGTACAACGAGGAAGAAAGGCCGTAGAACTATTATTATGAG
In the case of B1, the binding result in data set [2] (label: 5' biotin via PBM_0206 (probe)) is “binds”.

B2: mfa promoter fragment 5 (dsDNA)
DNA 1: ATTTAATATTAATCCTTTTAAACATTTGGCTTATGAAGTTAAACAAAATGTTTTTGGTCGGAGCATTGCTCTCATTGGGCT
DNA 2: AGCCCAATGAGAGCAATGCTCCGACCAAAAACATTTTGTTTAACTTCATAAGCCAAATGTTTAAAAGGATTAATATTAAAT
B2: the binding result in data set [2] (label: 5' biotin via PBM_0217 (probe)) was “binds”.
